Test results published in patent publication US20200199241A1 (Chugai, published 2020).

T1: human FcγRIIa(R) (human, UniProt P12318 36-217)
T1 construct: also called FcgRIIaR; FcγRIIa type R
T1 chain: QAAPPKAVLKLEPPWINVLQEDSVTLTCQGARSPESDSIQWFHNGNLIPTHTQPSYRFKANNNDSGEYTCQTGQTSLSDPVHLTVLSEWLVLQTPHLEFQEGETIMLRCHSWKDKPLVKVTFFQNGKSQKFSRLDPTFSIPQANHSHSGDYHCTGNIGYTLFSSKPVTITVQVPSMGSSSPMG

T2: human FcγRIIa(H) (human, UniProt P12318 36-217)
T2 construct: also called FcgRIIaH; FcγRIIa type H
T2 sequence: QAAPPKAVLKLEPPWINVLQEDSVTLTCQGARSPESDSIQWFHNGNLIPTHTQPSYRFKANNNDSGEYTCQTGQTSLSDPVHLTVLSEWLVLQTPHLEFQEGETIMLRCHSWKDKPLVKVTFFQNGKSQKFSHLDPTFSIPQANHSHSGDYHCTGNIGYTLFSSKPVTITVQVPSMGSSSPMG

T3: human FcγRIIb (human, UniProt P31994 43-217, limits assumed)
T3 construct: also called FcgRIIb
T3 sequence: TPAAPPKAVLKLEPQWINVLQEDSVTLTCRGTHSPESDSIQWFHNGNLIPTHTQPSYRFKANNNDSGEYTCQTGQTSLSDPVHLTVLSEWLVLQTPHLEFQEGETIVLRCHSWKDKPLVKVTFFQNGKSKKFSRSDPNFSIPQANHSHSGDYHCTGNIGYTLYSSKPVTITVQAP


Legend:
Assay in all cases: SPR (Biacore);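 further: antibody variants captured on sensor chip, Fcγ receptor flowed over at 25 °C, bound receptor normalized to amount of captured antibody, expressed relative to reference antibody set as 100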
[1] = target: T1, human FcγRIIa(R)
[2] = target: T4, human FcγRIIIa(F) (human, UniProt P08637 17-208, limits assumed)
T4 construct: also called FcgRIIIaF; allotype F158

[3] = target: T2, human FcγRIIa(H)
[4] = target: T5, human FcγRIa (human, UniProt P12314 16-292, limits assumed)
T5 construct: also called FcgRIa; FcγRI (CD64)

[5] = target: T3, human FcγRIIb

T4 sequence (P08637 other isoform, or with tags, fused parts or gaps limits assumed): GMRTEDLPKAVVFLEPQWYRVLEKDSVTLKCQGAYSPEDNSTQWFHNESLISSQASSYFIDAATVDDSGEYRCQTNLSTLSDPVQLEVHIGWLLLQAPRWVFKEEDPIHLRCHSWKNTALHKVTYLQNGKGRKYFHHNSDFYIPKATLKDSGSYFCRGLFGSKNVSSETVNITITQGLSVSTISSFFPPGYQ
T5 sequence (P12314 16-292 limits assumed): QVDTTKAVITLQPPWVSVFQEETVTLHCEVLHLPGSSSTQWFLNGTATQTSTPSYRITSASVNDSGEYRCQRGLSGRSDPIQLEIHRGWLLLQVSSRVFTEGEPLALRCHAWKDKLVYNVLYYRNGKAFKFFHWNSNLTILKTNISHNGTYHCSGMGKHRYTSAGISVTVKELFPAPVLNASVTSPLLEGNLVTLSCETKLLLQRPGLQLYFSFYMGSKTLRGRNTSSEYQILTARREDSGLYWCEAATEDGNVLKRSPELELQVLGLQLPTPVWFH

Binder	relative binding activity [1]	relative binding activity [2]	relative binding activity [3]	relative binding activity [4]	relative binding activity [5]
GpH7-B3 variant P238G/GpL16-k0 (antibody, human IgG1, copies: 2 + 2) heavy: not shown light: DIVMTQSPLSLPVTPGEPASISCQASESLVHSNRNTYLHWYLQKPGQSPQLLIYKVSNRFSGVPDRFSGSGSGTDFTLKISRVEAEDVGVYYCSQNTHVPPTFGQGTKVEIE	4 % of GpH7-B3/GpL16-k0	0 % of GpH7-B3/GpL16-k0	1 % of GpH7-B3/GpL16-k0	65 % of GpH7-B3/GpL16-k0	27 % of GpH7-B3/GpL16-k0
GpH7-B3 variant S239Q/GpL16-k0 (antibody, human IgG1, copies: 2 + 2) heavy: not shown light: DIVMTQSPLSLPVTPGEPASISCQASESLVHSNRNTYLHWYLQKPGQSPQLLIYKVSNRFSGVPDRFSGSGSGTDFTLKISRVEAEDVGVYYCSQNTHVPPTFGQGTKVEIE	57 % of GpH7-B3/GpL16-k0	29 % of GpH7-B3/GpL16-k0	58 % of GpH7-B3/GpL16-k0	96 % of GpH7-B3/GpL16-k0	68 % of GpH7-B3/GpL16-k0
GpH7-B3 variant S239Y/GpL16-k0 (antibody, human IgG1, copies: 2 + 2) heavy: not shown light: DIVMTQSPLSLPVTPGEPASISCQASESLVHSNRNTYLHWYLQKPGQSPQLLIYKVSNRFSGVPDRFSGSGSGTDFTLKISRVEAEDVGVYYCSQNTHVPPTFGQGTKVEIE	11 % of GpH7-B3/GpL16-k0	6 % of GpH7-B3/GpL16-k0	5 % of GpH7-B3/GpL16-k0	69 % of GpH7-B3/GpL16-k0	12 % of GpH7-B3/GpL16-k0
GpH7-B3 variant P238Q/GpL16-k0 (antibody, human IgG1, copies: 2 + 2) heavy: not shown light: DIVMTQSPLSLPVTPGEPASISCQASESLVHSNRNTYLHWYLQKPGQSPQLLIYKVSNRFSGVPDRFSGSGSGTDFTLKISRVEAEDVGVYYCSQNTHVPPTFGQGTKVEIE	19 % of GpH7-B3/GpL16-k0	-1 % of GpH7-B3/GpL16-k0	4 % of GpH7-B3/GpL16-k0	84 % of GpH7-B3/GpL16-k0	43 % of GpH7-B3/GpL16-k0
GpH7-B3 variant P238T/GpL16-k0 (antibody, human IgG1, copies: 2 + 2) heavy: not shown light: DIVMTQSPLSLPVTPGEPASISCQASESLVHSNRNTYLHWYLQKPGQSPQLLIYKVSNRFSGVPDRFSGSGSGTDFTLKISRVEAEDVGVYYCSQNTHVPPTFGQGTKVEIE	19 % of GpH7-B3/GpL16-k0	0 % of GpH7-B3/GpL16-k0	6 % of GpH7-B3/GpL16-k0	67 % of GpH7-B3/GpL16-k0	8 % of GpH7-B3/GpL16-k0
GpH7-B3 variant P238W/GpL16-k0 (antibody, human IgG1, copies: 2 + 2) heavy: not shown light: DIVMTQSPLSLPVTPGEPASISCQASESLVHSNRNTYLHWYLQKPGQSPQLLIYKVSNRFSGVPDRFSGSGSGTDFTLKISRVEAEDVGVYYCSQNTHVPPTFGQGTKVEIE	25 % of GpH7-B3/GpL16-k0	-1 % of GpH7-B3/GpL16-k0	2 % of GpH7-B3/GpL16-k0	99 % of GpH7-B3/GpL16-k0	13 % of GpH7-B3/GpL16-k0
GpH7-B3 variant P238H/GpL16-k0 (antibody, human IgG1, copies: 2 + 2) heavy: not shown light: DIVMTQSPLSLPVTPGEPASISCQASESLVHSNRNTYLHWYLQKPGQSPQLLIYKVSNRFSGVPDRFSGSGSGTDFTLKISRVEAEDVGVYYCSQNTHVPPTFGQGTKVEIE	25 % of GpH7-B3/GpL16-k0	-1 % of GpH7-B3/GpL16-k0	3 % of GpH7-B3/GpL16-k0	80 % of GpH7-B3/GpL16-k0	19 % of GpH7-B3/GpL16-k0
GpH7-B3 variant S239P/GpL16-k0 (antibody, human IgG1, copies: 2 + 2) heavy: not shown light: DIVMTQSPLSLPVTPGEPASISCQASESLVHSNRNTYLHWYLQKPGQSPQLLIYKVSNRFSGVPDRFSGSGSGTDFTLKISRVEAEDVGVYYCSQNTHVPPTFGQGTKVEIE	49 % of GpH7-B3/GpL16-k0	-1 % of GpH7-B3/GpL16-k0	4 % of GpH7-B3/GpL16-k0	89 % of GpH7-B3/GpL16-k0	61 % of GpH7-B3/GpL16-k0
GpH7-B3 variant P238R/GpL16-k0 (antibody, human IgG1, copies: 2 + 2) heavy: not shown light: DIVMTQSPLSLPVTPGEPASISCQASESLVHSNRNTYLHWYLQKPGQSPQLLIYKVSNRFSGVPDRFSGSGSGTDFTLKISRVEAEDVGVYYCSQNTHVPPTFGQGTKVEIE	-1 % of GpH7-B3/GpL16-k0	-1 % of GpH7-B3/GpL16-k0	-1 % of GpH7-B3/GpL16-k0	1 % of GpH7-B3/GpL16-k0	-2 % of GpH7-B3/GpL16-k0
GpH7-B3 variant S239K/GpL16-k0 (antibody, human IgG1, copies: 2 + 2) heavy: not shown light: DIVMTQSPLSLPVTPGEPASISCQASESLVHSNRNTYLHWYLQKPGQSPQLLIYKVSNRFSGVPDRFSGSGSGTDFTLKISRVEAEDVGVYYCSQNTHVPPTFGQGTKVEIE	4 % of GpH7-B3/GpL16-k0	0 % of GpH7-B3/GpL16-k0	4 % of GpH7-B3/GpL16-k0	6 % of GpH7-B3/GpL16-k0	1 % of GpH7-B3/GpL16-k0
GpH7-B3 variant P238K/GpL16-k0 (antibody, human IgG1, copies: 2 + 2) heavy: not shown light: DIVMTQSPLSLPVTPGEPASISCQASESLVHSNRNTYLHWYLQKPGQSPQLLIYKVSNRFSGVPDRFSGSGSGTDFTLKISRVEAEDVGVYYCSQNTHVPPTFGQGTKVEIE	-2 % of GpH7-B3/GpL16-k0	-1 % of GpH7-B3/GpL16-k0	-1 % of GpH7-B3/GpL16-k0	8 % of GpH7-B3/GpL16-k0	-2 % of GpH7-B3/GpL16-k0
GpH7-B3 variant S267F/GpL16-k0 (antibody, human IgG1, copies: 2 + 2) heavy: not shown light: DIVMTQSPLSLPVTPGEPASISCQASESLVHSNRNTYLHWYLQKPGQSPQLLIYKVSNRFSGVPDRFSGSGSGTDFTLKISRVEAEDVGVYYCSQNTHVPPTFGQGTKVEIE	13 % of GpH7-B3/GpL16-k0	0 % of GpH7-B3/GpL16-k0	1 % of GpH7-B3/GpL16-k0	91 % of GpH7-B3/GpL16-k0	18 % of GpH7-B3/GpL16-k0
GpH7-B3 variant S239F/GpL16-k0 (antibody, human IgG1, copies: 2 + 2) heavy: not shown light: DIVMTQSPLSLPVTPGEPASISCQASESLVHSNRNTYLHWYLQKPGQSPQLLIYKVSNRFSGVPDRFSGSGSGTDFTLKISRVEAEDVGVYYCSQNTHVPPTFGQGTKVEIE	20 % of GpH7-B3/GpL16-k0	3 % of GpH7-B3/GpL16-k0	11 % of GpH7-B3/GpL16-k0	77 % of GpH7-B3/GpL16-k0	12 % of GpH7-B3/GpL16-k0
GpH7-B3 variant P238S/GpL16-k0 (antibody, human IgG1, copies: 2 + 2) heavy: not shown light: DIVMTQSPLSLPVTPGEPASISCQASESLVHSNRNTYLHWYLQKPGQSPQLLIYKVSNRFSGVPDRFSGSGSGTDFTLKISRVEAEDVGVYYCSQNTHVPPTFGQGTKVEIE	32 % of GpH7-B3/GpL16-k0	3 % of GpH7-B3/GpL16-k0	13 % of GpH7-B3/GpL16-k0	91 % of GpH7-B3/GpL16-k0	28 % of GpH7-B3/GpL16-k0
GpH7-B3 variant P238I/GpL16-k0 (antibody, human IgG1, copies: 2 + 2) heavy: not shown light: DIVMTQSPLSLPVTPGEPASISCQASESLVHSNRNTYLHWYLQKPGQSPQLLIYKVSNRFSGVPDRFSGSGSGTDFTLKISRVEAEDVGVYYCSQNTHVPPTFGQGTKVEIE	43 % of GpH7-B3/GpL16-k0	3 % of GpH7-B3/GpL16-k0	19 % of GpH7-B3/GpL16-k0	99 % of GpH7-B3/GpL16-k0	31 % of GpH7-B3/GpL16-k0
GpH7-B3 variant P238N/GpL16-k0 (antibody, human IgG1, copies: 2 + 2) heavy: not shown light: DIVMTQSPLSLPVTPGEPASISCQASESLVHSNRNTYLHWYLQKPGQSPQLLIYKVSNRFSGVPDRFSGSGSGTDFTLKISRVEAEDVGVYYCSQNTHVPPTFGQGTKVEIE	5 % of GpH7-B3/GpL16-k0	-1 % of GpH7-B3/GpL16-k0	1 % of GpH7-B3/GpL16-k0	64 % of GpH7-B3/GpL16-k0	27 % of GpH7-B3/GpL16-k0
GpH7-B3 variant S239H/GpL16-k0 (antibody, human IgG1, copies: 2 + 2) heavy: not shown light: DIVMTQSPLSLPVTPGEPASISCQASESLVHSNRNTYLHWYLQKPGQSPQLLIYKVSNRFSGVPDRFSGSGSGTDFTLKISRVEAEDVGVYYCSQNTHVPPTFGQGTKVEIE	38 % of GpH7-B3/GpL16-k0	6 % of GpH7-B3/GpL16-k0	19 % of GpH7-B3/GpL16-k0	64 % of GpH7-B3/GpL16-k0	24 % of GpH7-B3/GpL16-k0
